Results from PMC4299599, “Quantification of cytosolic interactions identifies Ede1 oligomers as key organizers of endocytosis” (Molecular Systems Biology, 2014).
Blank lines part the entries; values can stand above or below the binder they belong to.

Tests used:
Settings in all cases: partners not purified
Bbc1 = target: T1, Bbc1 (S. cerevisiae, UniProt P47068 1-1157); test: fluorescence cross-correlation spectroscopy (FCCS); in the cytoplasm of living yeast cells; first-named protein green (3myeGFP or 1myeGFP; eGFP for Don1), second red (3mCherry); self-interaction in diploid strains with one allele of each colour; apparent or effective KD (Kdeff) from single-cell measurements; only Kdeff values < 1000 nM are shown; values for self-interactions are upper limits
T1 construct: Bbc1, S. cerevisiae; also called Bbc1-3myeGFP; Bbc1-3mCherry; source: chromosomally tagged at the endogenous locus, in the cytoplasm of living S. cerevisiae cells
T1 sequence (looked up): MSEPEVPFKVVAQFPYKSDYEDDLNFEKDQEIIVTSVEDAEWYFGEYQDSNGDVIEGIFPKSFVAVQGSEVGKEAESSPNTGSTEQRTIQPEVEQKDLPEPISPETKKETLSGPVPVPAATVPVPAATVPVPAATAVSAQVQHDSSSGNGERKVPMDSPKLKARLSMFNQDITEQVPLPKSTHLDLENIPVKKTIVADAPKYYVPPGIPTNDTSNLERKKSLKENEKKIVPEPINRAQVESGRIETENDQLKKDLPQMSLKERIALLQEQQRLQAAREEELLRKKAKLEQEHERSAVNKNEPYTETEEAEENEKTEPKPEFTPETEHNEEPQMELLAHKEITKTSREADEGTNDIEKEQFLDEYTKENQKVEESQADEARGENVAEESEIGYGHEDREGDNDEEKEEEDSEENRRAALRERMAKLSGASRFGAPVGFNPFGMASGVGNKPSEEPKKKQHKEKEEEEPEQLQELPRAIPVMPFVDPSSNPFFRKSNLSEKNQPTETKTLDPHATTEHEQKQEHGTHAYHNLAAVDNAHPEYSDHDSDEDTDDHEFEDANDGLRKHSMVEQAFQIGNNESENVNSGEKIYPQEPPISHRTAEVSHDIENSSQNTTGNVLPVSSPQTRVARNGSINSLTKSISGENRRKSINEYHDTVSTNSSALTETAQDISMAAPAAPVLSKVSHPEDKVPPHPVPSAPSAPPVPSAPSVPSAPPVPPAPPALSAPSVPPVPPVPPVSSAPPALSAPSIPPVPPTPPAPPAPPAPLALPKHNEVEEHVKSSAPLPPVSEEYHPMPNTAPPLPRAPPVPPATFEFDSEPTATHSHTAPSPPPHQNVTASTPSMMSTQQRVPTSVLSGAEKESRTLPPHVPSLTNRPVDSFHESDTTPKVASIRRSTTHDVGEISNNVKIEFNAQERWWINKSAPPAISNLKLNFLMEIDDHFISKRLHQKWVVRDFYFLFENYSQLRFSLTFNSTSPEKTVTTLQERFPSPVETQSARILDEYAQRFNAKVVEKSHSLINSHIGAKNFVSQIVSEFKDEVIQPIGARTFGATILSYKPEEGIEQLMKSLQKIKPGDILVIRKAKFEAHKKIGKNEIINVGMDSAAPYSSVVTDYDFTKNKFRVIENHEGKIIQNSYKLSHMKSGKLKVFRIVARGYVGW

Sla1 = target: T2, Sla1 (S. cerevisiae, UniProt P32790 1-1244); test: as above
T2 construct: Sla1, S. cerevisiae; also called Sla1-3myeGFP; Sla1-3mCherry; source: chromosomally tagged at the endogenous locus, in the cytoplasm of living S. cerevisiae cells
T2 sequence (looked up): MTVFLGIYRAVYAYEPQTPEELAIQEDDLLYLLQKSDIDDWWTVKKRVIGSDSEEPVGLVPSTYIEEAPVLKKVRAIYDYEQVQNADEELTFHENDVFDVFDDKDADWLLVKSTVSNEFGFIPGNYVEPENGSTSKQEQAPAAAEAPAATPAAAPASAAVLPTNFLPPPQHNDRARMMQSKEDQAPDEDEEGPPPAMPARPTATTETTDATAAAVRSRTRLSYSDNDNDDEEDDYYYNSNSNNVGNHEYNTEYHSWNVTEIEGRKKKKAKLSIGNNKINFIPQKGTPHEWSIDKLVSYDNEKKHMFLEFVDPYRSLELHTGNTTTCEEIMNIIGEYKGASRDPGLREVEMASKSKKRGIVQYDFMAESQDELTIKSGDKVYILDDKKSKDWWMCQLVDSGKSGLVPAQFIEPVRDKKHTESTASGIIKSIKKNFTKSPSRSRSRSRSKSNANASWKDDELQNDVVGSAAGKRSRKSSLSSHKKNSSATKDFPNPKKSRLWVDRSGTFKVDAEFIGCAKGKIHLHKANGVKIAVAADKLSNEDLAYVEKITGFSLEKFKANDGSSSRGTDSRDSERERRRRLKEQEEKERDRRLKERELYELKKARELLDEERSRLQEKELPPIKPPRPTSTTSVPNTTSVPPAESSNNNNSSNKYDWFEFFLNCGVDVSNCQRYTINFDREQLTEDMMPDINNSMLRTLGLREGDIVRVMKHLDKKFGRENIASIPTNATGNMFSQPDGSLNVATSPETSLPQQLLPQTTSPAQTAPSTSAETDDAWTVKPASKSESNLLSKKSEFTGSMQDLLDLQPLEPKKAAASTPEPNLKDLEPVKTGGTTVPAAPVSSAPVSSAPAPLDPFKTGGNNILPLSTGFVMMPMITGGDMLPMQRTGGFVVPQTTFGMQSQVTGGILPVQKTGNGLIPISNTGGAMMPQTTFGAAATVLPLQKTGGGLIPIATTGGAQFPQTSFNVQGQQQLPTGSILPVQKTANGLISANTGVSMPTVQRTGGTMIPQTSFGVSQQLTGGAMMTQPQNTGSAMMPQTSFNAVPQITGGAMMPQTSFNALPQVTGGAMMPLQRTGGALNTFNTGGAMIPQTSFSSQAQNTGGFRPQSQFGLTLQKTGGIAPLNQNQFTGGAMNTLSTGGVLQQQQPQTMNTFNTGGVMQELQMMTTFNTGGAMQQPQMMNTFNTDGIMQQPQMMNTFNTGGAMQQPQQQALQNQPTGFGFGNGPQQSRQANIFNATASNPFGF

Rvs167 = target: T3, Rvs167 (S. cerevisiae, UniProt P39743 1-482); test: as above
T3 construct: Rvs167, amphiphysin-like protein, S. cerevisiae; also called Rvs167-1myeGFP; source: chromosomally tagged at the endogenous locus, in the cytoplasm of living S. cerevisiae cells; not shown: 1myeGFP, C-terminal, kept

Ste11-3mCherry = target: T4, Ste11-3mCherry (S. cerevisiae, UniProt P23561 1-717); test: fluorescence cross-correlation spectroscopy (FCCS); living yeast cells, observation volume in the cytoplasm; one protein tagged with (3)myeGFP/eGFP and the other with 3mCherry in the same strain; apparent (effective) KD; interactions up to ~1 μM detectable
T4 construct: Ste11, S. cerevisiae; negative control of FCCS; source: S. cerevisiae strain Don1-eGFP, Ste11-3mCherry, in living cells
T4 sequence (looked up): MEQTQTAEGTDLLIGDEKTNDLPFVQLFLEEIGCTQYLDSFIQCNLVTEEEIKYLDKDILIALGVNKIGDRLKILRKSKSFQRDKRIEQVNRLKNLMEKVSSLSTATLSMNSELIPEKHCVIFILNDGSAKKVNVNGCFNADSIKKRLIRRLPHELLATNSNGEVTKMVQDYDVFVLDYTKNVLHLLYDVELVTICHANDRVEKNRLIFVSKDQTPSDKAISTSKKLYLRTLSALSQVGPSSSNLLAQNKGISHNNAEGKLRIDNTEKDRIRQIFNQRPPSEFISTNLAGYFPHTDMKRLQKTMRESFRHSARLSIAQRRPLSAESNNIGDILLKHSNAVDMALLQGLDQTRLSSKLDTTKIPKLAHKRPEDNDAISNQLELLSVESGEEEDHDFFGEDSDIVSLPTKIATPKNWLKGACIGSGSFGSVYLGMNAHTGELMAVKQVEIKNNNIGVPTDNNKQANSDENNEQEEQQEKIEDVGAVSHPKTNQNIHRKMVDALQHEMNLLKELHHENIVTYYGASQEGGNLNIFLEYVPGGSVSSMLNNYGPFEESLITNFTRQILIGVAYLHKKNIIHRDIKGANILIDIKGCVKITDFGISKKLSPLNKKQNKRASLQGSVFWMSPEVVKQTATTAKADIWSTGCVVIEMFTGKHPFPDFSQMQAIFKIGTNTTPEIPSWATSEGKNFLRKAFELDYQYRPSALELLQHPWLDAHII

T3 sequence (P39743 whole entry): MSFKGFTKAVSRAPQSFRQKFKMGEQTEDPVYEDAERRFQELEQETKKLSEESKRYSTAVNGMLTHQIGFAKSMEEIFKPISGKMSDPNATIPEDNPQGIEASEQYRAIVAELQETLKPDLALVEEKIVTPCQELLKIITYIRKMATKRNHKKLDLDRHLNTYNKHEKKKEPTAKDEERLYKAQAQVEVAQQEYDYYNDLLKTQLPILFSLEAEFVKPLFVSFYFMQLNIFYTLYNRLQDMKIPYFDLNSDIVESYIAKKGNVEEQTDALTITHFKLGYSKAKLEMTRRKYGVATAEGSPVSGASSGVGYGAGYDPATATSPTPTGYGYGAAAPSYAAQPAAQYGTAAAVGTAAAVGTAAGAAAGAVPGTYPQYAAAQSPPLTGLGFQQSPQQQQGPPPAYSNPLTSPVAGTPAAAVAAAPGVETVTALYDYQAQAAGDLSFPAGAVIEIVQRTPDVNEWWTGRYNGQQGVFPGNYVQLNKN

- Kd (Bbc1): 994 nM
- Kd (Sla1): 976 nM
B1: Bzz1 (natural protein, S. cerevisiae, UniProt P38822 1-633, looked up)
chain: MSADLSIGNEIKDSFKETHKWVQNNLKWLKDIEQFYRERAKLEKDYSERLSRLSAEYFNKKSSTSVPISVGDTPTTTPGSIEAAGVVAWNEILSQTDMISKDHDQLSTDFENHVANQLSGLFTKLDMTLSKINGFNNDMVNKKDNIYHELEKAKKDYDEACSTMEMARNRYTKASNDRNKKKLDEKEMEMNKCKNEYLIKINQANRTKDKYYFQDVPEVLDLLQDVNEAKTLFLNDLWLKAASVENDLGANVSKRLQAANSVVKQNKPSLNTAIFIKHNLKNWKEPQDFVYKPSPVWHDDEKFAVPSSLEVEDLRIKLAKAENDYNSLQDKTQNELSKLSTLNKIKHEMKTNEDNINATKFYDTLKEYLNVVSPFTSHETLKLQAEVQIESIQNNVPEEYDLSTDNIDLSKTKKKSGIFSKFKHNILNVDSKPSSGGSTGNGNGGPLHITSLFNTSRRTRLGSAPNNAGEDSDNNSIRTTSTNNTKKTTQNSSDDGKNKVLYAYVQKDDDEITITPGDKISLVARDTGSGWTKINNDTTGETGLVPTTYIRISSAATVKANDRGPAPEVPPPRRSTLPVRTMEAIYAYEAQGDDEISIDPGDIITVIRGDDGSGWTYGECDGLKGLFPTSYCK
notes: Bzz1, S. cerevisiae; also called Bzz1-3myeGFP; Bzz1-3mCherry; source: chromosomally tagged at the endogenous locus, in the cytoplasm of living S. cerevisiae cells

- Kd (Rvs167): 6 nM
B2: Rvs161 (natural protein, S. cerevisiae, UniProt P25343 1-265, looked up)
chain: MSWEGFKKAINRAGHSVIIKNVDKTIDKEYDMEERRYKVLQRAGEALQKEAKGFLDSLRAVTASQTTIAEVISNLYDDSKYVAGGGYNVGNYYLQCVQDFDSETVKQLDGPLRETVLDPITKFSTYFKEIEEAIKKRDHKKQDFDAAKAKVRRLVDKPAKDASKLPRAEKELSLAKDIFENLNNQLKTELPQLVSLRVPYFDPSFEALIKIQLRFCTDGYTRLAQIQQYLDQQSRDDYANGLLDTKIEELLGQMTSLDICALGIK
notes: Rvs161, amphiphysin-like protein, S. cerevisiae; also called Rvs161-1myeGFP; Rvs161-3mCherry; source: chromosomally tagged at the endogenous locus, in the cytoplasm of living S. cerevisiae cells

- Kd (Ste11-3mCherry): > 1000 nM
B3: Don1-eGFP (natural protein, S. cerevisiae, UniProt Q05610 1-365, looked up)
chain: MGKKNRKGKENNAAKTSFLKVENIKNTNSGLELPSQDYTNVEEKESSPKTDFPLITKEHVNTKTDSNILDYPTIGDLVSSVEKLCVLKELKIAFPEVDDTLIKAILIASQGVLEPAFNSLLYYSSPEENTDFALPMKPISVEDYSKINVSEILQREIFDDIEDEFSGQGINGSMVISKIESELSSLAEHIGNISTPGSNREVAESTRNVAVAEGHNTILSNEDSILKGKEKGKEEEKEKGEEKGVNSLKGAAVKVVAKSLKNNRIPVTVKRNEPSNNLFDVLNCDESEEEEEQDVETNTSNQERKNQGGNTEVPEAQRDSADRLPAKDDGGYKSAFGTDSCGLFAADAKDEKKQVHPSRQELSFT
notes: Don1, S. cerevisiae; negative control of FCCS; source: S. cerevisiae strain Don1-eGFP, Ste11-3mCherry, in living cells
